Bounds are passed on as bounds.

One may read the IC50 as the concentration that gives 50% inhibition. High values mean weaker potency in that assay, low ones greater potency in that assay.

Assay in all cases: cell-based or functional assay
Assay [1] addresses HIV-1 Env of pseudovirus MGRM-Chronic-B-002, clade B (HIV-1).
Assay [2] addresses HIV-1 Env of isolate MGRM-D-004 (clade D) (HIV-1).
For assay [3], the target named is HIV-1 MGRM-A-003 envelope glycoprotein (Env) (HIV-1).
The target in assay [4] is HIV-1 MGRM-F1-020 Env (pseudovirus) (HIV-1).
For assay [5], the target named is HIV-1 MGRM-C-006 Env (HIV-1).
Assay [6] has as its target HIV-1 Env of isolate MGRM-D-012 (HIV-1).
The target in assay [7] is HIV-1 Env of isolate MGRM-G-017 (subtype G) (HIV-1).
Assay [8] concerns the target HIV-1 Env of pseudovirus TRO.11 (Acute), clade B (HIV-1).
Assay [9] deals with HIV-1 MGRM-A-010 envelope glycoprotein (Env) (HIV-1).
For assay [10], the target named is HIV-1 Env of isolate MGRM-D-011 (clade D) (HIV-1).
Assay [11] addresses HIV-1 MGRM-F1-006 Env (pseudovirus) (HIV-1).
Assay [12] has as its target HIV-1 92RW024 envelope glycoprotein (Env) on pseudovirus (HIV-1).
The target of assay [13] is HIV-1 94UG103 envelope glycoprotein (Env) (HIV-1).
In assay [14] the target is HIV-1 Env of pseudovirus MGRM-Chronic-B-008, clade B (HIV-1).
Assay [15] addresses HIV-1 Env of isolate MGRM-G-027 (subtype G) (HIV-1).
The target of assay [16] is HIV-1 Env of isolate MGRM-AE-001 (HIV-1).
In assay [17] the target is HIV-1 Env of isolate 92UG024 (HIV-1).
The target of assay [18] is HIV-1 MGRM-A-010 envelope glycoprotein (Env) on pseudovirus (HIV-1).
The target of assay [19] is HIV-1 Env of pseudovirus APV_17, clade B (HIV-1).
For assay [20], the target named is HIV-1 SC422661.8 Env (pseudovirus) (HIV-1).
For assay [21], the target named is HIV-1 Env of isolate MG RM-AG-002 (HIV-1).
In assay [22] the target is HIV-1 MGRM-Chronic-B-002 Env (pseudovirus) (HIV-1).
The target of assay [23] is HIV-1 Env of isolate MGRM-C-022 (pseudovirus) (HIV-1 isolate MGRM-C-022, subtype C).
For assay [24], the target named is HIV-1 Env of isolate 92UG046 (subtype D) (HIV-1).
The target of assay [25] is HIV-1 MGRM-Chronic-B-011 Env (pseudovirus) (HIV-1).
Assay [26] has as its target HIV-1 Env of isolate MGRM-C-006 (pseudovirus) (HIV-1 isolate MGRM-C-006, subtype C).
Assay [27] deals with HIV-1 Env of isolate MGRM-F1-004 (subtype F) (HIV-1).
The target of assay [28] is HIV-1 JR-CSF Env E172A (HIV-1 (isolate JR-CSF)) (UniProt P20871).
The target of assay [29] is HIV-1 JR-CSF Env V182A (HIV-1 (isolate JR-CSF)) (UniProt P20871).
The target of assay [30] is HIV-1 Env of isolate 92WR021 (HIV-1).
In assay [31] the target is HIV-1 Env of isolate 93WR029 (HIV-1).
In assay [32] the target is HIV-1 Env of isolate MGRM-D-021 (HIV-1).
Assay [33] deals with HIV-1 Env of isolate MGRM-D-022 (HIV-1).
Assay [34] deals with HIV-1 Env of isolate 98IN022 (HIV-1).

Chain of PGT-142 (4995_E20) (antibody) (VH): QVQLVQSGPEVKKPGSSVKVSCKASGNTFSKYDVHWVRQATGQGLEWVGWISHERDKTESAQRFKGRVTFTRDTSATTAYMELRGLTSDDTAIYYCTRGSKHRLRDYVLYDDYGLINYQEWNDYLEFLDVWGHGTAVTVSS
Chain of PGT-142 (4995_E20) (antibody) (VL): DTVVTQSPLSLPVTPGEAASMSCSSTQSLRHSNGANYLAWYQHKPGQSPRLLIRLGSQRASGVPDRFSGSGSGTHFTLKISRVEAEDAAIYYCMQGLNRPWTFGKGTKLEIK
Chain of PGT-144 (4970_K22) (antibody) (VH): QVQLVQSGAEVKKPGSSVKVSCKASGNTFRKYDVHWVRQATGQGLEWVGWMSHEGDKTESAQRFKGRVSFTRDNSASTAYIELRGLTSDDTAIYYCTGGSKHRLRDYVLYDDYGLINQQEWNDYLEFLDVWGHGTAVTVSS
Chain of PGT-144 (4970_K22) (antibody) (VL): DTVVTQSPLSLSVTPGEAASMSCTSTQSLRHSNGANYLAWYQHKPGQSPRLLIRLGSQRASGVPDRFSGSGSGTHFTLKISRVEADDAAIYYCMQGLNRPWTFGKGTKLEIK
Chain of PGT-141 (4964_G22; 4993_K13) (antibody) (VH): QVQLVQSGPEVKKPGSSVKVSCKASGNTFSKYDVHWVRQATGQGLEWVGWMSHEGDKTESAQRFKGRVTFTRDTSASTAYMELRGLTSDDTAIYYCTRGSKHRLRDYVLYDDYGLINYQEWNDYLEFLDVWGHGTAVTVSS
Chain of PGT-143 (4980_N08) (antibody) (VH): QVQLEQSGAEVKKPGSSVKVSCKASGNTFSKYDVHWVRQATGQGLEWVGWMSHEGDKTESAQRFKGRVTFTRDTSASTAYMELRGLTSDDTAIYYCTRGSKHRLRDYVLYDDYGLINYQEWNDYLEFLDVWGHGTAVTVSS
Chain of PGT-143 (4980_N08) (antibody) (VL): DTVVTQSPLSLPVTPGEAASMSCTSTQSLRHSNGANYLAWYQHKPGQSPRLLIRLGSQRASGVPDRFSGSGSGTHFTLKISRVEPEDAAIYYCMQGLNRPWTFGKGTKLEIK

As to 1496_C09 (PG9) (TCN-109) (antibody), the IC50 (µg/ml), pseudovirus neutralization in assay [1] stood at 1.41 µg/mL; in assay [2], 0.03 µg/mL; in [3], 0.65 µg/mL; in assay [4], 4.55 µg/mL; in assay [8], 5.43 µg/mL; in [10], 0.06 µg/mL. The IC50 (µg/ml), pseudovirus neutralization in assay [11] was 1.45 µg/mL; in assay [12] it was 0.18 µg/mL; in assay [13], 0.24 µg/mL; in assay [14], 6.66 µg/mL; in [16], 2.97 µg/mL; in [19], 14.6 µg/mL. The substance also showed an IC50 in [5] of 0.23 µg/mL. Further, the IC50 (µg/mL), pseudovirus neutralization was 16.2 µg/mL in [6], 20.6 µg/mL in assay [16] and 1.86 µg/mL in [17]. Moreover, the neutralization IC50 in assay [7] was 0.104 µg/mL; in assay [15] it was 0.007 µg/mL. The IC50 neutralization in assay [9] was 0.0375 µg/mL; in assay [13], 0.31 µg/mL; in [18], 0.0375 µg/mL. In assay [18], this substance had an IC50 (ug/ml), neutralizing activity of 0.0375 µg/mL. In [18], this substance returned an IC80, neutralization of 0.121 µg/mL. Further, the IC90, neutralization in assay [18] is 0.242 µg/mL. This substance had an IC95, neutralization in assay [18] of 0.456 µg/mL.

Take 4838_L06 (PGT-121) (antibody): the IC50, pseudovirus neutralization in [20] is 0.098 µg/mL; in assay [22], 0.386 µg/mL; in assay [25] it was > 50 µg/mL. Also, the neutralization IC50 in assay [21] is > 50 µg/mL. Moreover, the IC50 (µg/mL) neutralization is 0.015 µg/mL in assay [23] and 0.017 µg/mL in assay [26]. Moreover, the IC50 (µg/mL), pseudovirus neutralization in [24] is > 50 µg/mL; in [27] it was 1.67 µg/mL.

As to 4858_P08 (PGT-123) (antibody), the IC50, pseudovirus neutralization in assay [20] is 0.039 µg/mL; in assay [22], 0.234 µg/mL; in [25] it was > 50 µg/mL; in assay [18], 0.492 µg/mL. The neutralization IC50 in assay [21] is > 50 µg/mL. Besides, the Fold IC50 increase relative to wild-type in [28] was 1.1 fold; in assay [29], 2.8 fold. Besides, the IC50 (µg/mL) neutralization worked out at 0.01 µg/mL in [23] and 0.021 µg/mL in [26]. For the same substance, the IC50 (µg/mL), pseudovirus neutralization is > 50 µg/mL in [24] and 1.78 µg/mL in assay [27]. Also, the IC50 (ug/ml), neutralizing activity in assay [18] is 0.492 µg/mL. Further, in [18], the IC80, pseudovirus neutralization is 2.79 µg/mL. In [18], this substance came in with an IC90 (pseudovirus neutralization) of 6.44 µg/mL. The IC95, pseudovirus neutralization in assay [18] was > 10 µg/mL.

4877_D15 (PGT-122) (antibody): the results for the IC50, pseudovirus neutralization in assay [20], in assay [22] and in [25] were 0.103 µg/mL, 1.8 µg/mL and > 50 µg/mL, respectively. In [21], the neutralization IC50 is > 50 µg/mL. In addition, the IC50 (µg/mL) neutralization in [23] came to 0.012 µg/mL; in assay [26] it was 0.018 µg/mL. In addition, the values for the IC50 (µg/mL), pseudovirus neutralization in assay [24] and in assay [27] were > 50 µg/mL and 1.29 µg/mL, respectively. Moreover, in [18], the IC50 (ug/ml), neutralizing activity worked out at 1.68 µg/mL.

Take 5123_A06 (PGT-125) (antibody): the figures for the IC50, pseudovirus neutralization in assay [20], in assay [22] and in assay [25] were 30.1 µg/mL, 0.064 µg/mL and 3.23 µg/mL, respectively. Also, the results for the neutralization IC50 in [21] and in assay [18] were > 50 µg/mL and 0.0055 µg/mL, respectively. Also, the Fold IC50 increase relative to wild-type in assay [28] is 1.8 fold; in [29], 1.3 fold. For the same substance, the IC50 (µg/mL) neutralization in [23] was 1.23 µg/mL; in assay [26], 0.015 µg/mL. For the same substance, the IC50 (µg/mL), pseudovirus neutralization in assay [24] and in assay [27] was > 50 µg/mL throughout. In assay [18], this substance came in with an IC50 (ug/ml), neutralizing activity of 0.0025 µg/mL. This substance also registered a neutralization IC80 in assay [18] of 0.024 µg/mL. The same substance displayed a neutralization IC90 in [18] of 0.0575 µg/mL. The substance also had a neutralization IC95 in assay [18] of 0.131 µg/mL.

As to 5141_B17 (PGT-126) (antibody), the results for the IC50, pseudovirus neutralization in assay [20], in assay [22] and in assay [25] were 0.119 µg/mL, 0.078 µg/mL and 0.108 µg/mL, respectively. Further, the neutralization IC50 in assay [21] is > 50 µg/mL. Further, the Fold IC50 increase relative to wild-type in [28] amounted to 0.7 fold; in [29], 1.4 fold. For the same substance, the IC50 (µg/mL) neutralization in [23] was 0.96 µg/mL; in assay [26], 0.014 µg/mL. Also, the IC50 (µg/mL), pseudovirus neutralization is > 50 µg/mL in assay [24] and 0.063 µg/mL in assay [27]. This substance also returned an IC50 (ug/ml), neutralizing activity in assay [18] of 0.0033 µg/mL.

For the substance 5145_B14 (PGT-127) (antibody), the IC50, pseudovirus neutralization in assay [20] was found to be 36.7 µg/mL; in assay [22], 0.279 µg/mL; in assay [25] it was 0.297 µg/mL. Further, the neutralization IC50 in assay [21] was > 50 µg/mL. Also, the Fold IC50 increase relative to wild-type in assay [28] was 2.1 fold; in assay [29], 1.6 fold. For the same substance, the IC50 (µg/mL) neutralization was 0.41 µg/mL in assay [23] and 0.319 µg/mL in assay [26]. Besides, the results for the IC50 (µg/mL), pseudovirus neutralization in [24] and in [27] were > 50 µg/mL and 0.068 µg/mL, respectively.

For PGT-121 (antibody), the IC50 (µg/mL), pseudovirus neutralization in assay [30] is 0.009 µg/mL; in assay [16] it was > 50 µg/mL; in [31], > 50 µg/mL. The IC50 neutralization in assay [9] is 2.61 µg/mL; in assay [13], 1.38 µg/mL.

Turning to PGT-122 (antibody), the IC50 (µg/mL), pseudovirus neutralization is 0.021 µg/mL in [30], > 50 µg/mL in assay [16] and > 50 µg/mL in [31]. Also, the IC50 neutralization stood at 1.68 µg/mL in [9] and 1.46 µg/mL in [13].

Consider PGT-141 (4964_G22; 4993_K13) (antibody), for which the figures for the neutralization IC50 in [7] and in assay [15] were 0.164 µg/mL and > 50 µg/mL, respectively.

For PGT-142 (4995_E20) (antibody), the neutralization IC50 is 0.125 µg/mL in [7] and > 50 µg/mL in assay [15].

For the substance PGT-143 (4980_N08) (antibody), the values for the neutralization IC50 in assay [7] and in [15] were 0.107 µg/mL and > 50 µg/mL, respectively.

As to PGT-144 (4970_K22) (antibody), the neutralization IC50 in [7] was 9.97 µg/mL; in assay [15], > 50 µg/mL.

For PGV04 (antibody), the IC50 (µg/mL), pseudovirus neutralization in assay [32] is > 50 µg/mL; in [6], 0.125 µg/mL; in assay [33], > 50 µg/mL; in [16], 0.063 µg/mL; in assay [17] it was 0.201 µg/mL. Further, the neutralization IC50 in assay [7] turned out to be 0.065 µg/mL; in [15] it was 0.125 µg/mL.

VRC01 (antibody): the neutralization IC50 in assay [34] was found to be 0.342 µg/mL; in assay [7], 0.124 µg/mL; in [15] it was 0.36 µg/mL. The results for the IC50, pseudovirus neutralization in assay [32], in assay [6] and in assay [33] were 33.4 µg/mL, 0.216 µg/mL and > 50 µg/mL, respectively.

The record behind these values is patent US20200024330A1.
